Measured values from US20150376286A1 (Amgen, published 2015).
Substitutions are numbered along the chain they refer to. Each block holds one binder with its values, some of them ahead of it.

Assays:
[1] = target: T1, chimeric CGRP receptor: CRLR wt + RAMP1 chimera #2 (Q43 to E53) (human; human/rat chimera, UniProt Q16602 23-461; O60894 27-148); experiment: FACS on transfected 293-6E cells
T1 construct: also called CRLR wt+RAMP1 Q43-E53
T1 chain 1: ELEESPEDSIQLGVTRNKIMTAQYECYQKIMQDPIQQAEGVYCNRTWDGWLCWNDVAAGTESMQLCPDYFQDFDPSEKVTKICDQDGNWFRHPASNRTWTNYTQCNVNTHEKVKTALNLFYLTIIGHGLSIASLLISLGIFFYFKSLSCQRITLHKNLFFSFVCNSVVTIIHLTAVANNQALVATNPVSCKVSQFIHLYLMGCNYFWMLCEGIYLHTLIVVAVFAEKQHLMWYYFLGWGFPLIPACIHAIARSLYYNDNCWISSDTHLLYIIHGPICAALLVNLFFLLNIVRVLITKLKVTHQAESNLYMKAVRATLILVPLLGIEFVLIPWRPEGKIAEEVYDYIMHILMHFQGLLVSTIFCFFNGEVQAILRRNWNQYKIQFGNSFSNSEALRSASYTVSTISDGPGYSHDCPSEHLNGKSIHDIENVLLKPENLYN
T1 chain 2: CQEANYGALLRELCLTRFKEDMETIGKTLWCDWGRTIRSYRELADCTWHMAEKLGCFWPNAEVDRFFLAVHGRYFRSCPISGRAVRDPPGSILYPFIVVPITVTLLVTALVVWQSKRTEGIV
Procedure: (§1) Cells were harvested after 72 hr, washed with PBS+0.5% BSA, and counted. Each transfected cell line was resuspended at a dilution of 5×10⁵ cells per 100 μl PBS/BSA. 100 μl of cell suspension was aliquot per well in a 96-well round-bottom plate (Falcon). The cells were pelleted at 1200 rpm for 5 min. […] Cells were incubated on ice for 1 hr. and then washed twice with PBS/BSA. […] Cells were incubated on ice in the dark for 1 hr. and then washed twice with PBS/BSA. Cells were resuspended in 200 μl PBS/BSA and analyzed using a FACS Calibur.

[2] = target: T2, chimeric CGRP receptor: CRLR chimera #1 (L24 to Q33) + RAMP1 wt (human/rat chimera; human, UniProt Q16602 1-461; O60894 27-148); experiment: FACS on transfected 293-6E cells
T2 construct: also called CRLR L24-Q33+RAMP wt
Procedure: as §1

[3] = target: T3, chimeric CGRP receptor: CRLR wt + RAMP1 chimera #3 (R67 to E78) (human; human/rat chimera, UniProt Q16602 23-461; O60894 27-148); experiment: FACS on transfected 293-6E cells
T3 construct: also called CRLR wt+RAMP1 R67-E78
T3 chain 1: T1 chain 1
T3 chain 2: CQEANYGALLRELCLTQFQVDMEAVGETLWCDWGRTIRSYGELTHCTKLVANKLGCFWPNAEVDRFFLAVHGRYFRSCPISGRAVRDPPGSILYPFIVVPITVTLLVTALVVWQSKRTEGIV
Procedure: as §1

[4] = target: T4, human CGRP receptor (CRLR + RAMP1) (human, UniProt Q16602 23-461; O60894 27-148); experiment: FACS on transfected 293-6E cells
T4 construct: also called hCGRP R; huCGRP R
Procedure: as §1

[5] = target: human adrenomedullin receptor 2 (hCRLR + hRAMP3) (human, UniProt O60896 24-148); experiment: cell-based or functional assay
[6] = target: T5, cynomolgus CGRP receptor (cynoCRLR + cynoRAMP1) (cynomolgus monkey); experiment: cell-based or functional assay
T5 chain 1: T1 chain 1 with D55N, L431V
T5 chain 2: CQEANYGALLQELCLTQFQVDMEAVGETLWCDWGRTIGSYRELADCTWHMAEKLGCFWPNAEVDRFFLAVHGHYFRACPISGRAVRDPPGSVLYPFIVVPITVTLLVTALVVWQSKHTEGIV

[7] = target: human adrenomedullin receptor 1 (hCRLR + hRAMP2) (human, UniProt O60895 43-175); experiment: cell-based or functional assay
rat CGRP receptor = rat CGRP receptor (rat, UniProt Q63118 24-464; Q9JJ74 27-148); experiment: cell-based or functional assay
[8] = target: human amylin AMY1 receptor (hCTR + hRAMP1) (human, UniProt P30988 25-474); experiment: cell-based or functional assay
[9] = target: T6, soluble CGRP receptor-muFc fusion protein (human); experiment: Western blot
T6 construct: also called CGRP R-muFc; not shown: mouse Fc
T6 chain 1: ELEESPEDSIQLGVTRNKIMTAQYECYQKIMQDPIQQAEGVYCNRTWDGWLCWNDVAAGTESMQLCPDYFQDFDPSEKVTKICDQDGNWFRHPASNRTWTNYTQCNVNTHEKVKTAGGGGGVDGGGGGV
T6 chain 2: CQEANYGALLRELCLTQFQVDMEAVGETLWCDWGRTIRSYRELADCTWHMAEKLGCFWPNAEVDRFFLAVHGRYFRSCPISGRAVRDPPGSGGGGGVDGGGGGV
Procedure: The sample containing βME was then boiled for 4 min. […] Gels were electroblotted onto 0.2 μm nitrocellulose filters (Invitrogen). The blots were washed with Tris-buffered saline+1% Tween 20 (TBST) and then blocked with TBST+5% powered dry milk for 30 min. The blots were cut into strips along the molecular weight marker lanes. […] Blots were incubated with the antibodies for one hour followed by 3×10 min washes with TBST+1% milk. The blots treated with the huCGRP R antibodies were then incubated with goat anti-mouse IgG-Fc-HRP (1:10,000 in TBST+1% milk) and the blots treated with anti-huRAMP1 (N-20 anti-RAMP1 goat polyclonal antibody, Santa Cruz Biotech, CA) were incubated with rabbit anti-goat IgG-Fc-HRP (1:10,000) for 20 min. Blots were washed 3×15 min with TBST. The huCGRP R and anti-huRAMP1 antibody blots were treated with Pierce Supersignal West Pico Detection reagent, and the anti-mouse and anti-human IgG-Fc-HRP blots were treated with Pierce standard Detection Reagent (1 min.). Blots were then exposed with Kodak Biomax MS X-ray film.

[10] = target: T4, human CGRP receptor (CRLR + RAMP1); experiment: FACS on AM-1 CHO huCGRP R cells, KinExA n-curve analysis
Procedure: (§2) Briefly, AM-1 CHO huCGRP R-expressing cells, prepared as described above, were plated in 96-well plates at densities of 16,000 or 160,000 cells per well in DMEM medium containing 10% FBS, NEAA, PS, L Glut, NaPyr and 0.05% sodium azide. […] After an overnight incubation at 4° C. in a total volume of 120 μl, on a plate shaker, the cells were washed 2× with PBS+2% FBS, centrifuging and discarding supernatant each time. 100 μl/well of G anti-Hu Fc Cy5 (5 μg/mL; Jackson ImmunoResearch Laboratories Inc., West Grove, Pa., USA) containing 7AAD (5 μl/well) was then added and incubated at 4° C. for 40 min. The cells were washed 2× with PBS+2% FBS, centrifuging and discarding the supernatant each time. 100 μl PBS+2% FBS buffer was then added and analyzed by FACS to determined the binding geomean. The Kd was calculated using KinExA software by taking the negative geomean at each antibody concentration as the amount of free Ab present Rathanaswami, et al., Biochemical and Biophysical Research Communications 334 (2005) 1004-1013.

[11] = target: T4, human CGRP receptor (CRLR + RAMP1); experiment: FACS Kd determination on AM-1 CHO huCGRP R cells; right-hand curve, cell density not labelled on the sheet
Procedure: as §2

[12] = target: T4, human CGRP receptor (CRLR + RAMP1); experiment: FACS Kd determination on AM-1 CHO huCGRP R cells; left-hand curve, cell density not labelled on the sheet
Procedure: as §2

[13] = target: T4, human CGRP receptor (CRLR + RAMP1); experiment: cell-based or functional assay
[14] = target: T4, human CGRP receptor (CRLR + RAMP1); experiment: 125I-CGRP competition binding, HTB-10 cell membranes
Procedure: The plates were incubated at room temperature for 2 hours with shaking at 60 rpm, and then the contents of each well were filtered over 0.5% polyethyleneimine (PEI)-treated (for at least one hour) GF/C 96-well filter plates. The GF/C filter plates were washed six times with ice-cold 50 mM Tris, pH 7.5 and dried in an oven at 55° C. for 1 hour. The bottoms of the GF/C plates were then sealed. 40 μl Microscint™ 20 was added to each well, the tops of the GF/C plates were sealed with TopSeal™-A (a press-on adhesive sealing film), and the GF/C plates were counted with TopCount NXT (Packard). The data were analyzed using Prizm (GraphPad Software Inc.)

B2: 3B6 (antibody, human IgG2, lambda, V domains shown)
VH: not shown
VL: SSELTQDPTVSVALGQTVKITCQGDSLRSFYASWYQQKPGQAPVLVFYGKNNRPSGIPDRFSGSSSGNTASLTITGAQAEDEADYYCNSRDSSVYHLVLGGGTKLTVLG
notes: also called 03B6; 03B6.2
cAMP assay IC50 [5]: > 1000 nM
cAMP assay IC50 [6]: 2.22 nM
cAMP assay IC50 [7]: > 1000 nM
cAMP assay IC50 (rat CGRP receptor): > 1000 nM
cAMP assay IC50 [8]: > 1000 nM
binding result [9]: binds

B3: 12G8 (antibody, human IgG2, lambda, V domains shown)
VH: QVQLVESGGGVVQPGRSLRLSCAASGFTFSSFGMHWVRQAPGKGLEWVAVISFDGSIKYSVDSVKGRFTISRDNSKNTLFLQMNSLRAEDTAVYYCARDRLNYYDSSGYYHYKYYGLAVWGQGTTVTVSS
VL: QSVLTQPPSVSAAPGQKVTISCSGSSSNIGNNYVSWYQQLPGTAPKLLIYDNNKRPSGIPDRFSGSKSGTSATLGITGLQTGDEADYYCGTWDSRLSAVVFGGGTKLTVLG
notes: also called 12G8.2
Kd [10]: 1.4 nM
EC50 (read off the curve) [11]: ~8 nM
EC50 (read off the curve) [12]: ~2 nM
cAMP assay IC50 [5]: > 1000 nM
cAMP assay IC50 [6]: 2.74 nM
cAMP assay IC50 [7]: > 1000 nM
cAMP assay IC50 (rat CGRP receptor): > 1000 nM
cAMP assay IC50 [8]: > 1000 nM
cAMP assay IC50 [13]: 2.14 nM
Ki [14]: 0.017 nM

Continued, values first:

binding result [1]: binds
binding result [2]: binds
binding result [3]: binds
binding result [4]: binds
B1: 33B5 (antibody, V domains shown)
VH: not shown
VL: DIQMTQSPSSLSASVGDRVTITCRASQGIRNDLGWYQQKPGKAPKRLIYVASSLQSGVPSRFSGSGSGTEFTLTISSLQPEDFATYYCLQYNTYPLTFGGGTKVEIK

cAMP assay IC50 [5]: > 1000 nM
cAMP assay IC50 [6]: 3.52 nM
cAMP assay IC50 [7]: > 1000 nM
cAMP assay IC50 (rat CGRP receptor): > 1000 nM
cAMP assay IC50 [8]: > 1000 nM
binding result [9]: binds
B4: 4E4 (antibody, human IgG2, lambda, V domains shown)
VH: B3 VH with L117M
VL: B3 VL with A72T
notes: also called 04E4; 04E4.2
